A short description of data set [1]: in vivo. Also on record: species or system BALB/c mice. The settings on record: BALB/c, mouse, total radioactivity. The method, then: (§1) In vivo animal PET imaging and biodistribution. All injections were less than 200 μL with <10% EtOH in sterile PBS. PET images were obtained with the mice under anesthesia in an Inveon PET-CT at 4-144 h p.i. All images were analyzed using 3D Slicer (www.slicer.org). Dissections for ex vivo biodistribution were performed on mice after C02 asphyxiation or cervical dislocation while anesthetized at reported time points. Weight of the syringe prior to injection and after injection was used to determine the mass of injectate. Activity of the syringe prior to injection and after injection was used to determine the percent of injectate administered. The mass injected was corrected by the percent of radioactivity injected. Four to five aliquots (10 μL) were weighed and counted as internal standards for each study. All of the collected organs were counted using an automatic gamma counter (Wizard 3″, PerkinElmer, Waltham, MA). The total injected dose was found as the mass injected dose×fraction radioactivity injected×internal standard average counts/g. The percent injected dose (% ID) was determined as the counts for the tissue×100/total injected dose. The % ID/g was calculated as the % ID/tissue weight. The average and standard deviation of the % ID and % ID/g was determined using normal methods (n-1) for each set of mice.
(§2) 4T1 orthotopic BALB c mouse model. Animal studies were conducted according to MSKCC IACUC-approved animal protocol.
(§3) The 4T1 cells derived from spontaneous breast tumor in a BALB/c mouse (Karmanos Cancer Institute, Detroit, MI) were cultured in Dulbecco's modified Eagle's high glucose media with 10% FCS, 2 mM L-glutamine, penicillin, and streptomycin. The 4T1 cells derived from ATCC (Manassas, VA) were cultured in RPMI-1640 medium modified to contain 2 mM L-glutamine, 10 mM HEPES, 1 mM sodium pyruvate, 4.5 g/L glucose, 1.5 g/L NaHCO3, penicillin, and streptomycin.
(§4) The 4T1 cells described above were removed from the flasks containing the culture, concentrated, and resuspended in minimal media for cell counting. […]

Data set [2] relates to 4T1 tumors. Nature of the data set: in vivo. Also on record: species or system BALB/c mice. The following applies: mouse. How it is done:
as §1, §2, §3, §4

A short description of data set [3]: in vivo. The settings on record: male, athymic nude, mouse, 200 uCi (1.2 nmol), total radioactivity, ex vivo distribution.
Procedure: All injections were less than 200 μL with <10% EtOH in sterile PBS. […] All images were analyzed using 3D Slicer (www.slicer.org). Dissections for ex vivo biodistribution were performed on mice after C02 asphyxiation or cervical dislocation while anesthetized at reported time points. Weight of the syringe prior to injection and after injection was used to determine the mass of injectate. Activity of the syringe prior to injection and after injection was used to determine the percent of injectate administered. The mass injected was corrected by the percent of radioactivity injected. Four to five aliquots (10 μL) were weighed and counted as internal standards for each study. All of the collected organs were counted using an automatic gamma counter (Wizard 3″, PerkinElmer, Waltham, MA). […] The percent injected dose (% ID) was determined as the counts for the tissue×100/total injected dose. The % ID/g was calculated as the % ID/tissue weight. The average and standard deviation of the % ID and % ID/g was determined using normal methods (n-1) for each set of mice.
Tissue samples were collected for additional ex vivo biodistribution studies to confirm the PET data results.

Each structure is given as a SMILES string. Non-standard residues stand in square brackets, D forms with d. Residues, ends and D or L forms follow the SMILES beside them. *: point of attachment. X1 = CC(=O)N(O)CCCCCNC(=O)CCC(=O)N(O)CCCCCNC(=O)CCC(=O)N(O)CCCCCNC(=O)CCN1C(=O)CC(*)C1=O

For the molecule `CC(=O)N(O)CCCCCNC(=O)CCC(=O)N(O)CCCCCNC(=O)CCC(=O)N(O)CCCCCNC(=O)CCN1C(=O)CC(SC[C@@H](NC(=O)[C@@H](C)N)C(=O)N[C@H](CC(=O)O)C(=O)N[C@H](CC(=O)O)C(=O)N[C@H](CCC(N)=O)C(=O)N[C@H](CC(N)=O)C(=O)N2CCC[C@@H]2C(=O)N[C@H](Cc2c[nH]c3ccccc23)C(=O)N[C@H](CCCNC(=N)N)C(=O)N[C@H](C)C(=O)N[C@H](Cc2ccc(O)cc2)C(=O)N[C@H](CC(C)C)C(=O)N[C@H](CC(=O)O)C(=O)N[C@H](CC(C)C)C(=O)N[C@H](CC(C)C)C(=O)N[C@H](Cc2ccccc2)C(=O)N2CCC[C@@H]2C(=O)N[C@@H](C(=O)N[C@H](CC(=O)O)C(=O)N[C@@H](C(=O)N[C@H](CC(C)C)C(=O)N[C@H](CC(C)C)C(=O)N[C@H](CC(C)C)C(=O)N[C@H](CC(=O)O)C(=O)N[C@H](CC(C)C)C(=O)N[C@H](CC(C)C)C(=O)N[C@H](Cc2c[nH]c3ccccc23)C(=O)O)[C@H](C)O)[C@H](C)O)C1=O` (stereo partly drawn) [[^89Zr]Zr-DFO-cys-Var3pHLIP, metal not drawn] (H-[dA][dC](X1)[dD][dD][dQ][dN][dP][dW][dR][dA][dY][dL][dD][dL][dL][dF][dP][dT][dD][dT][dL][dL][dL][dD][dL][dL][dW]-OH; N-terminus and C-terminus assumed), the tissue uptake in data set [1] was about 15 %ID/g. Further, the “time until which tumor uptake continues to increase” value in data set [2] is “approximately 48 h”. In data set [2] (5 ug), the circulatory half-life entry was “long circulatory half-life”. The tissue uptake at 48 h is 1.4 ± 0.1 %ID/g in data set [3] (Femur) and 0.6 ± 0.7 %ID/g in data set [3] (Muscle).

Source of the values: patent publication US20230372551A1, “RADIOLABELED LIGANDS FOR TARGETED PET/SPECT IMAGING AND METHODS OF THEIR USE” (priority 2020, published 2023).
